± gives the half width of the 95% confidence interval.
Columns and labels:
[1] = folding stability dG unfold from trypsin proteolysis; higher = more stable
Method in brief: (§1)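 Unfolding free energy was derived, per protease or combined, by relating Bayesian-fitted K50 values from sequencing counts to a sequence-predicted unfolded-state K50 and a shared folded-state K50. The underlying digests exposed cysteine-free mini-proteins under 80 residues, in a PA-tagged cDNA display construct, to trypsin and chymotrypsin at 11 threefold-diluted concentrations and to a no-protease condition. A filter kept only designs with AlphaFold2 dimer inter-PAE above 15.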

[2] = folding stability dG unfold from chymotrypsin proteolysis; higher = more stable
Method in brief: as §1

[3] = folding stability dG unfold (combined trypsin and chymotrypsin); higher = more stable
Method in brief: as §1

With “SAGGSAGGSAGMKVTATSLNPASGTVTVKFSDGTTRTFSSVEALKAAIPEGVPIEIAPAVSAGGSAGGSAGG [r17_295_JUSTAS]” the “folding stability dG unfold” value [1] was 2.46 ± 0.13 kcal/mol, the “folding stability dG unfold” value [2] was 2.297 ± 0.012 kcal/mol and the “folding stability dG unfold” value [3] was 2.36 ± 0.051 kcal/mol.

For “SAGKKKKIKVKIEIRVKKKYKTKDGKEVEEKEETITVEIEMTLEELKEAIKKLPENVEITKITKIEKESAGG [r19_114_TrROS_Hall]”, the “folding stability dG unfold” value [1] was 1.58 ± 0.11 kcal/mol, the “folding stability dG unfold” value [2] was 2.42 ± 0.058 kcal/mol and the “folding stability dG unfold” value [3] was 2.26 ± 0.16 kcal/mol.

For “SAGGSAGGSAGGPTVTVKVKLEDGSTATVTYDLDTGELYIEVNGKTYKFPLGSKVEIEEVSAGGSAGGSAGG [r7_434_TrROS_Hall]”, the “folding stability dG unfold” value [1] was 2.39 ± 0.28 kcal/mol, the “folding stability dG unfold” value [2] was 3.56 ± 0.054 kcal/mol and the “folding stability dG unfold” value [3] was 3.31 ± 0.17 kcal/mol.

With “SAGKARIVEYDEESGTITIEVDGKTIEIELAPGETAEITLEENEDGTLTLTITVNGKTLTLTIPLDDLKSAG [r5_500_TrROS_Hall]” the “folding stability dG unfold” value [1] was 2.61 ± 0.18 kcal/mol, the “folding stability dG unfold” value [2] was 3.47 ± 0.12 kcal/mol and the “folding stability dG unfold” value [3] was 3.15 ± 0.13 kcal/mol.

With “SAGGSIEEILKAIPDAEKYEIDREKGIAYVTKKNTLYIVTVPRTSLPSPNGVLEPVSPISIKELPLESAGGS [r16_65_JUSTAS]” the “folding stability dG unfold” value [1] was 0.128 ± 0.047 kcal/mol, the “folding stability dG unfold” value [2] was 0.538 ± 0.1 kcal/mol and the “folding stability dG unfold” value [3] was 0.447 ± 0.089 kcal/mol.

In the case of “SMRVRPDGYAVVIEVRVTEDAGPPPPPFEAIRDPETDRVTVVAGATPEEIVAFAEFPGVEVERIEVIPLLSA [r9_827_TrMRF]”, the “folding stability dG unfold” value [1] is reported as 0.24 ± 0.1 kcal/mol, the “folding stability dG unfold” value [2] is reported as 0.675 ± 0.086 kcal/mol and the “folding stability dG unfold” value [3] is reported as 0.572 ± 0.099 kcal/mol.

For “SAGKKLKITDPEYKYYPNEGMYWVTIPIRFPDGKPIFDIDYPMPPGQSWDQVREQAKDIARWLIEEGLISAG [r5_238_TrROS]”, the “folding stability dG unfold” value [1] was 0.639 ± 0.059 kcal/mol, the “folding stability dG unfold” value [2] was 1.93 ± 0.13 kcal/mol and the “folding stability dG unfold” value [3] was 1.52 ± 0.095 kcal/mol.

For “SAGGSAGGSAGGSSMVFELDGVRIVVTEDEVVFYPPETGKPVVLPMSNPEVQELIKELVSAGGSAGGSAGGS [r4_353_TrMRF]”, the “folding stability dG unfold” value [1] was 1.87 ± 0.054 kcal/mol, the “folding stability dG unfold” value [2] was 1.78 ± 0.039 kcal/mol and the “folding stability dG unfold” value [3] was 1.82 ± 0.083 kcal/mol.

For “SAGGSAGGSITTVTGVYKTPDGNPTAATFEVANKPDGTVTYTVTVPGTGKTFSTDSLDLVTVDGSAGGSAGG [r6_255_JUSTAS]”, the “folding stability dG unfold” value [1] was 0.296 ± 0.027 kcal/mol, the “folding stability dG unfold” value [2] was 0.563 ± 0.072 kcal/mol and the “folding stability dG unfold” value [3] was 0.485 ± 0.042 kcal/mol.

In the case of “SAGGSAGGSAGGSWTVTKEISREGDKVYISTVTTYVNPNGTPVTETETKEISPEEVAELESAGGSAGGSAGG [r11_690_JUSTAS]”, the “folding stability dG unfold” value [1] is reported as 0.964 ± 0.037 kcal/mol, the “folding stability dG unfold” value [2] is reported as 1.11 ± 0.14 kcal/mol and the “folding stability dG unfold” value [3] is reported as 1.11 ± 0.11 kcal/mol.

With “SAGGSAGGSKKKTIVILVPPGMSVDAIKKKLKELGIKVKIVPAPPVKVKVDEKTNELKVEKVTSAGGSAGGS [r12_80_TrROS_Hall]” the “folding stability dG unfold” value [1] was 0.874 ± 0.059 kcal/mol, the “folding stability dG unfold” value [2] was 0.618 ± 0.086 kcal/mol and the “folding stability dG unfold” value [3] was 0.657 ± 0.15 kcal/mol.

With “SAGGSAGGSAGGPVLVKLSVSKPPGDKVIVTLSFYNPETKEVFTITVPLDFLKNIKPLFSAGGSAGGSAGGS [r10_1077_TrMRF]” the “folding stability dG unfold” value [1] was 2.61 ± 0.11 kcal/mol, the “folding stability dG unfold” value [2] was 2.87 ± 0.13 kcal/mol and the “folding stability dG unfold” value [3] was 2.83 ± 0.2 kcal/mol.

In the case of “SAGGATVTVTEYPLPTGTLYRVTVTVGSKTTTFTVPPGVSLEEIKEIVEKEVGVDLTTVTTTTVSTAAASAG [r5_181_JUSTAS]”, the “folding stability dG unfold” value [1] is reported as 3.06 ± 0.14 kcal/mol, the “folding stability dG unfold” value [2] is reported as 3.83 ± 0.062 kcal/mol and the “folding stability dG unfold” value [3] is reported as 3.56 ± 0.14 kcal/mol.

For “SMEELLEKALEEAKEAAEKGEKTVIIEIRVDGKTFRIEIDVETGEIVKIEKEKREDGSEIFRIEIKLPEPSA [r9_308_TrROS_Hall]”, the “folding stability dG unfold” value [1] was 0.695 ± 0.07 kcal/mol, the “folding stability dG unfold” value [2] was 1.61 ± 0.086 kcal/mol and the “folding stability dG unfold” value [3] was 1.3 ± 0.39 kcal/mol.

In the case of “SAGGSAMKVEIVLKVPGDEMLDIEVDEEFPVVDQTIDKETGIVTVLLEGDPEKAEEIAKEIAEKLGSAGGSA [r15_662_TrMRF]”, the “folding stability dG unfold” value [1] is reported as 0.6 ± 0.069 kcal/mol, the “folding stability dG unfold” value [2] is reported as 0.299 ± 0.044 kcal/mol and the “folding stability dG unfold” value [3] is reported as 0.511 ± 0.1 kcal/mol.

In the case of “SAGGSAKIRYIKVLLRFPPKGEKKIIVIPIENIPEDRPEELIELAKAIAEAFVEGTGAEVEGIEISSAGGSA [r15_1013_TrMRF]”, the “folding stability dG unfold” value [1] is reported as 4.34 ± 0.2 kcal/mol, the “folding stability dG unfold” value [2] is reported as 3.88 ± 0.072 kcal/mol and the “folding stability dG unfold” value [3] is reported as 4.05 ± 0.13 kcal/mol.

For “SAGGSAGGSAGGPKYKIEIEIKKIKVKVEKTVKYDGKTYKEEKEFEVLEIKIKIEPEGESAGGSAGGSAGGS [r10_118_TrROS_Hall]”, the “folding stability dG unfold” value [1] was 3.19 ± 0.36 kcal/mol, the “folding stability dG unfold” value [2] was 4.29 ± 0.21 kcal/mol and the “folding stability dG unfold” value [3] was 4.05 ± 0.29 kcal/mol.

In the case of “SAGGGFDLEFVTPDGRRIRVEVKRILSYDPEKGYLVMEVKVTIYHPDKPIEIDGIIVFPPGFPPGAGGSAGG [r13_823_TrMRF]”, the “folding stability dG unfold” value [1] is reported as 3.6 ± 0.13 kcal/mol, the “folding stability dG unfold” value [2] is reported as 4 ± 0.17 kcal/mol and the “folding stability dG unfold” value [3] is reported as 3.85 ± 0.12 kcal/mol.

In the case of “SAGGSKPTVTLELYIEVPEEELSEEEIKKLLEELAKELNLEVEVTVEVEEKDGKLIVKVTVTIKKPSAGGSA [r2_172_TrROS_Hall]”, the “folding stability dG unfold” value [1] is reported as 2.15 ± 0.19 kcal/mol, the “folding stability dG unfold” value [2] is reported as 2.28 ± 0.14 kcal/mol and the “folding stability dG unfold” value [3] is reported as 2.25 ± 0.25 kcal/mol.

In the case of “SAGGSAGGSAFDPGAPWIIMINIDIEVKKVEIERDPGDGKWEIKRIEITITIDIAIMPAEDMSAGGSAGGSA [r18_137_TrROS]”, the “folding stability dG unfold” value [1] is reported as 3.42 ± 0.39 kcal/mol, the “folding stability dG unfold” value [2] is reported as 4.11 ± 0.23 kcal/mol and the “folding stability dG unfold” value [3] is reported as 3.88 ± 0.38 kcal/mol.

With “SLPYTPSTAELTLTLPGGEVKVKANVYTLPDGSTITIATFPDGSVAVYDPSLGRLVLYDPSTGKPIAVLGSA [r9_970_TrMRF]” the “folding stability dG unfold” value [1] was 2.41 ± 0.038 kcal/mol, the “folding stability dG unfold” value [2] was 2.173 ± 0.013 kcal/mol and the “folding stability dG unfold” value [3] was 2.32 ± 0.028 kcal/mol.

Reference: the supplement of paper PMC12764529
